Measured values: the DeepSol protein solubility set

experiment: soluble on expression in E. coli; label from the status in PepcDB or PDB records

Soluble on expression in E. coli, not soluble:
MGSDKIHHHHHHMAVILFDIDGTLIDSTDQMTEAIHLAMEDMPHLVKPSKASVQSSYGLAGNAFWRKAIPDASENDIKEIRRKRHHHLEQTMQNQDVLFDGIRELLEQLTNQGHIVSTASNCGVHYLNLVLDSQNIRSYFTSPKCLESVNGKQKADILAAHREEFSEVDYLMVGDRSSDVEAARLQNMPVAICCFGFGTEQEWKTADHQLETPLDLLKFV
MGSDKIHHHHHHMAVQDLLSQDEIDALLHGVDDGMVQTDIASEPGSVKSYDLTSQDRIVRGRMPTLEMINERFARYTRISMFNLLRRSADVAVGGVQVMKFGEYVHSLYVPTSLNLAKIKPLRGTALFILDAKLVFKLVDNFFGGDGRHAKIEGREFTPTELRVVRMVLDQAFIDLKEAWQAIMEVNFEYINSEVNPAMANIVGPSEAVVISTFHIELDGGGGDLHVTMPYSMIEPIREMLDAGFQSDLDDQDERWVNALKEDVLDVNVPLTTTIAQRQLPLRDILHMRPGDVIPVELSDTLVLRANGVPSFKVKLGSHKGKMALQVIEPIARR
MGSDKIHHHHHHMAWHKLGRVYCADGFADWAQHSFMTPVPVQMSADVIRLYGGMRDDAGISRIGWVDLDAHNPLRVIAVCDAPALDLGEPGMFDDNGVILGDVIRTSEAELRMYYVGFQLVEKAKFLAFTGVAISDASGTRFDRVFPTPVLDRAPEALFINALHSIAQTETGFRAWISCGQRWQDINGRIYPQYNCWTVPSEDGLHFDMRDAVKIMDVNEAEYRIGRPRANRLADGSFELRVTSDTFDKHYSSHLAHSKDGIVFQRSDEVELPRGAPGDWDAEMTCYPARIDTPTGRSYLFYNGNNMGETGVGVAEWQAEA
MGSDKIHHHHHHMAWTSAQGATAAMTVVDGVTGLPIAGATVVSAGAERVTANDGTFMMPMDGPDGGIAMTVRAPGYARLETVANGTTPRAIALAPLLAEEAARMGFDEVQFDYLRFPDAPGLRFSETNTSARRVAAITGFLSAARDRLRHYNIYLSADIFGYVCWNLDDTAIGQQLETLVVLSTTFHRCCIRPVSPSGWRRSGATSHPSRRGLP
MGSDKIHHHHHHMAYEQFAYVYDELMQDVPYPEWVAWVLEQVEPGKRIADIGCGTGTATLLLADHYEVTGVDLSEEMLEIAQEKAMETNRHVDFWVQDMRELELPEPVDAITILCDSLNYLQTEADVKQTFDSAARLLTDGGKLLFDVHSPYKMETLFNGKTYATHAEQSSYIWFADPGEEPLSVVHELTFFIEGEDGRYDRVDETHHQRTYPPEQYITWLREAGFRVCAVTGDFKSDAPTETAERIFFVAEKI
MGSDKIHHHHHHMCQHSIANIDINKDYDESLGTEEVHYQSFSRMAAFFGRDMQAHRHDRYFQMHYLDTGQIELQLDDHRYSVQAPLFVITPPSVPHAFITESDSDGHVLTVHEELIWPLLEVLYPGTRETFGLPGICLSLADKPDELAALAHYWQLIRRESTAQLPGREHTLALLAQAVFTLLLRNAKLDDHAASGMRGELKLFQRFNQMIDSHYHQHWTVPDYARELHLTESRLTDICRRFANRPPKRLIFDRQLREAKRLLLFSDSAVNEIAWQLGFKDPAYFARFFSRQVGCSPSSYRAQKVPVS
MGSDKIHHHHHHMCRWLAYSGRSVPLEAVLFQPEHSLIDQSLNARLGHTTTNGDGFGVGWYGRHSEVPFRYRCLHPAWSDTNLRETARAVRAPLFVAHVRAATGTPTQETNCHPFRFGRWLFVHNGLIREFPLLRRDLMMAVSPQLFRWIEGSTDSEIMFFLALTFGLERDPRAALEQMVGLIEEVGHRYDVEHPINMTVCVTDGQQIVAVRYSSEADSRSLFHSTSFRQLRELYPDDPRIIAAGDDAFLVLSEPLIDVQGVWQEIPEATILVGRAGVIDYSRFTPRMPELSS
MGSDKIHHHHHHMCRWLAYTGNPLQLETVLFNARHSLIDQSLHSRLGYTTTNGDGFGIGWYGEPTDIPFRYRCIQPAWSDRNLREAARAIRAPLFVAHVRSATDTPSQETNCHPFRHGRWLFAHNGLIRNYPAVRRDLMVMIDPDLFPSIEGSTDSEVMFFLALTFGLELAPVTALERMVAFVEETGRKHGVDEPLNMTVCVTDGEQIVAVRYSSEGQSRSLFHSTSFHHLHELYPDDPRIAAAGENAFLVLSEPLADLPGWWEEIPESTVVVARGGQIEQYPFRPQSA
MGSDKIHHHHHHMCYNNSMNERYIRFNPNIAKQKPSNKDKCPFCDKSQLGKILDVKDDMIWVENKYPTLEETYQTLVIESNDHNGDISVYSESKMRQLLDYLLSKWQLMEESGHYRSVVLYRNFGPLSGGSLRHPHSQIVGLKNVDAYETLNLDWFDGIEVCSETSQQAEISIANRPMLDFTEFTIKVSKLENAILIADSLPILCHYILNEFLGGRCKSYNLFFYKHDGGLICKIVPRFIVSPYQIGYAIHQVNLPDELEKIKEALRAKYYL
MGSDKIHHHHHHMDADELELKGHLKKLKKEELLRRKQLKESNLQKRELEYNNASKNTSIYISGLPTDKTTKEGLTEQFCKYGMIRTNRDGEPLCKLYVNDKGAFKGDALITYSKEESVTLAIEMMNESIFLGKQIRVERAQFQNKEGDNMHGKENDLKEFNGPEPPIKRLKKAKSEGEGEVIDYNDDESLAKADRTVIFANVFNIYKSYTNDDINDIQEDLLEGCEEIGQVDSISVSPNKGEATVVFKNNKVALQCCKIMTGRYFDGQKLLAFISGDENTSSTSDKNEDSEVEDDLI
MGSDKIHHHHHHMDAIVNTVNCVGVMGKGIALQFKNKWPANYSAYEAACKAKQVRPGTMFVFDSGGLVKPNYIINFPTKDHWRGKSRVEFIRDGLVDLVAQVKRLGIRSIAIPPLGCGNGGLEWDEVRPLIEQAFAVLPDVEVRLFAPAGAPDPKSMEVKTSRPKMTAGRAAILKVLDTYRSLEYGLSRIEVQKLAYFLQEAGESLSLSFVKNQYGPYSDQLRHALNRMEGHFIRGLGDGVVDAEIEPLEDALAEAEQYVSASGHAALARHVERVANLIEGFQTPYGMELLATVHWVATHEPTAHSFDQVVSAVHAWNERKARIMQPAHVRAAWSRLDAQGWL
MGSDKIHHHHHHMDDIPALMRSLQLKRKPLMVCSGGTTSRCAAEGHWTLDLRQSCRQIHFDPSTQHVEIGAGQTMESLLRELAKHGRSFPTGLSGLPGLGYILNGGISPLSRSQGLAIDQILEIKGVWGDGESFVLSKPEAACCSEDQLAWRGLCGAAPFLAVITDLKLQTHLLQPLRIWQSNLTFEQLLELIHQAESWPDSLSLQWIWGDEVHAYGVLLSADAAAVATFNQLQKTTLCTNVVEIDDVAGIHELPPFALPVVSNAAIGRCHSEVVALLGPAWGSGCQGVITALAELMAERPDPRCSLAVQQLGGVASRQRKDVSSLIHREAIWKPWITAAWPAGDSHIRALSLNWLEKVWATLEPYCAGVHLAQMHPHLPWHQRELKAAFGEWLPGLQELKARHDPNGILPSL
MGSDKIHHHHHHMDFIEVYPNALPDDLCDRLILAFDQHTGVVDGQTGNGVDPEKKISRDLTLDNFDDMQPLKNELLSYTLKGVVDYFTQYSMALMGAVAVSVSDAEGKPTTLTPSNFAQLGLPKVDGLVKYLYRSGSINIQKYQRNKGGYPHWHSEQFPQSGHNEALHRVVFYMFYLNDVEEGGETEFYYQRRKISPKKGTMVIAPAGFTHSHRGNMPISNDKYIATSWVMFNRAEQLYTVYA
MGSDKIHHHHHHMDFKQVQQSFIDYIRDPQRPVPVGVPLARMQVYRELFFNNVMGFVSNGFPVLKSLYTDEQWQTLVQAFFGQHDCKSPVFIDIAGEFLDFLQFQYSPMDSDPPFMLELAHYEWLELRVATAQQDDRQELIGKEDITYRNLCLAATASVAQYQYPVQQIRPDYRPSEPLVNPVYFCLYQDEVGEVGFLQLTPLSAQVLGYLTEKGQGTFDELTQWLAATYPQMPTETLTQGCLALLEQLATKSIVRGV
MGSDKIHHHHHHMDIAMVYSDRLLSPQIPPSRKLRVLKEVEIRLIEGEEQEVEELIMQIHSEEYFSRIRSHPFFENAVENVKCILTGLKALKDYDAVIVPVTTAGHLAEQSRMRGYCLLNGLAIAVKAAESYGRIAVIETDAHHGKASIVSEERATFFCIGRRECEISEDLRCVLGRRMGKDYVKSFEELVERVKEYDPNLVIWYLGLDLDSREYAEMPFGREEWEKLVKNFMKMAEGRKSLIMLALGLRDDVLKDIVGLFAGW
MGSDKIHHHHHHMDIISSFGFGRKHIAPILSKLMMLYPKLQIHFDTIDNTKDLIQHSIDLDIRIGNEIAPNMIAKKLASNFRILCASPSYLLKHGVPDSIEDLQTHDCLTISERDQSSVLWKFRHASEDVSVHIKPRFVSNNGEIIHQLAIEGHGIIFRSIWDVADELITGQLQHILPEYWQDADVWAVYPSRLKSSSKLQTCILFIQNELLNRLQHVQNLSRGQLISPAVKREPPPEKVFL
MGSDKIHHHHHHMDKMLYTAASGASRIMEAQSIRANNLANAETTGFKADLERVKSMALPGVEASLSTRVLVQTQSNGFSQQSGEMNHTGRNLDMAIRDRGLFTVMVDGGEAYTRAGAMIADAEGQLTVNGRPVLGIDGPMVLPEHKDLFVGEDGTISVLPAEGGVIQEVGRLKMVNPELNELTKGADGLLYPIAAGVLAADDGVQVDSGYLESSNVQAVSELIASMDLSRQFEIQVKLMKSAEKLAEAGNRLIRNA
MGSDKIHHHHHHMDLSKIASTINMRYYSQLGGFQVGGAVSGLDTQSIINAILEAESQPLQNLTEKYEKYELMQEAYTEVKTKLREFRDLVYSFKLQSTVVQKTAVSSSSLLSAEASSVAVTGVYHVKIVQTATYTTLAGASEVVPPPDSTKTFGELDYMYTPQEGTVRLYNNETGNYVEVQVLSTDTIDDIVSKLNSALSSAGITGSVSYDTSTGKISITSDKNFSLVDITGNFTKVFHLDEASLNYSGGNYSFTSTASVSGLSTAKTLQQIATYTSKTIISGKVKINGVEIDVDQNDTLSSLIEKINDSEAGVTASYDYHANRVVIISKTSGPEAITLEDTYGTGLFSLLGIENHSLYVGQKAHLQISMDGTNWADVYSDTNDVEYNGVTFHISGMTSETITVDVRVDTDAIVEKIKEFVDKWNETMDYLNEKLTEESITDKDEEEMTEEEKMKGVLKGDDLLEEIFSRLRGFITYKAEGDINYLWELGISTGDIGTGYENMMKGHLEVDEEKLKQIVEEDPNKVWEFFGGENGFATQLDDYLWELVKFNGRIDQVAGISGRIEREQRFLATQIASWIERLSKREQELWRKFSVMEEVISQLQSQGSWISQALQGSSNK
MGSDKIHHHHHHMDNEIVSSWHQGELAVQQRAGTDERMAEIGPKFIREFMPQQHRDFFQSLSMIFVGYTDHCSNAYASVLFGAPGFIQSPTETELVINTQSTIGDFIIEDLREGDHIGLVGIEFDTKRRNRINGVITDINQKNIKVKVLQSYGNCPKYIQPKEFAPNRSYSEFTTVSLDQLSQKYREIISSADTFFIASSFDDGQKFRNRGVDVSHRGGEVGFVSINAAGQLLVDDYVGNGFFNTLGNLLENPIASLLFCDWQTGHVLKIAVSSEILWHDEQQDSVVLAAGKVKRSLCFTPIKIEQFNNGLAYIQQF
MGSDKIHHHHHHMDPVLELEAVSKCFQRYRHPRDRLWELLFPRTSRVQTFQALENISLQVEPGRTIGIVGRNGAGKSTLLQIVAGTLTPSSGRVKVRGRVAALLELGSGFNPEFTGRQNVFFNGQLLGLTPQEIRDRFAEIVAFAEIGDFLDQPVKTYSSGMMVRLAFSVVAHLDPELLIVDEALAVGDARFQARCMKRIRELKEKGTTILFVSHDANAVRMLCDEAVLLEGGRILERGNPNWVLNHYNQLLGLEDRDNYRPLAQETQQAGLCYVEQAAHPNRHGNGRATISKAWLSGSGLQADKVLQGGDLTLTFQLQIHQDLPDALIGLSIRNLYGVVIYGTNNLQLEKRPKALAAGSSPELSFRWRNQLNAGVYTISIAITSEDCEVYDWIDEALVFEVVNDRFCEGVIDLGADLHWISEFSSPAAIATSRDSLGSTSPSS
